The supplement of paper PMC9112550, “Optimization of the antimicrobial peptide Bac7 by deep mutational scanning” (BMC Biology, 2022)
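Note: peptides expressed intracellularly from a pBAD plasmid library in pooled LB shake-flask culture, induced with 0.3% L-arabinose, DNA abundance read by NGS, three biological replicates, DESeq2 with apeglm shrinkage.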

Each sequence was assayed on Escherichia coli TOP10 (assay: shrunken log2 fold change of peptide-encoding DNA abundance (4.5 h post-induction vs induction); higher = less antimicrobial activity (less host growth inhibition)). Details: time post-induction: 4.5 h; library: site-saturation at positions 5, 18, 19, 20.
In the case of RRIRKRPPRLPRPRPRPYISPRP, the “shrunken log2 fold change” value is reported as -0.0238. With RRIRIRPPRLPRPRPRPWYSPRP the “shrunken log2 fold change” value was -0.821. In the case of RRIRFRPPRLPRPRPRPELCPRP, the “shrunken log2 fold change” value is reported as 0.193. RRIRERPPRLPRPRPRPNPPPRP was tested, and the “shrunken log2 fold change” value was 0.181. With RRIRVRPPRLPRPRPRPSVIPRP the “shrunken log2 fold change” value was -0.239. With RRIRQRPPRLPRPRPRPCMVPRP the “shrunken log2 fold change” value was -0.0725. RRIRFRPPRLPRPRPRPNFWPRP was tested, and the “shrunken log2 fold change” value was 0.15. With RRIRVRPPRLPRPRPRPPSKPRP the “shrunken log2 fold change” value was 1.13. For RRIRFRPPRLPRPRPRPSFEPRP, the “shrunken log2 fold change” value was -0.532. In the case of RRIRQRPPRLPRPRPRPFYMPRP, the “shrunken log2 fold change” value is reported as -1.52. For RRIRNRPPRLPRPRPRPTHTPRP, the “shrunken log2 fold change” value was -0.191. In the case of RRIRQRPPRLPRPRPRPLPKPRP, the “shrunken log2 fold change” value is reported as -0.226. RRIRQRPPRLPRPRPRPQWTPRP was tested, and the “shrunken log2 fold change” value was -0.126. With RRIRNRPPRLPRPRPRPNPCPRP the “shrunken log2 fold change” value was -0.1. RRIRIRPPRLPRPRPRPKCTPRP was tested, and the “shrunken log2 fold change” value was -0.233. RRIRIRPPRLPRPRPRPKWLPRP was tested, and the “shrunken log2 fold change” value was 0.0546. In the case of RRIRSRPPRLPRPRPRPINWPRP, the “shrunken log2 fold change” value is reported as -0.161. In the case of RRIRYRPPRLPRPRPRPNCVPRP, the “shrunken log2 fold change” value is reported as -0.0116. In the case of RRIRARPPRLPRPRPRPTGCPRP, the “shrunken log2 fold change” value is reported as 0.458. RRIRGRPPRLPRPRPRPWFYPRP was tested, and the “shrunken log2 fold change” value was -0.4. For RRIRPRPPRLPRPRPRPEVMPRP, the “shrunken log2 fold change” value was 0.462. RRIRTRPPRLPRPRPRPYNSPRP was tested, and the “shrunken log2 fold change” value was -0.00162. With RRIRPRPPRLPRPRPRPSHRPRP the “shrunken log2 fold change” value was 0.0628. In the case of RRIRDRPPRLPRPRPRPCMGPRP, the “shrunken log2 fold change” value is reported as -0.0733. With RRIRCRPPRLPRPRPRPFLNPRP the “shrunken log2 fold change” value was -0.602. With RRIRWRPPRLPRPRPRPISWPRP the “shrunken log2 fold change” value was 0.0165. In the case of RRIRARPPRLPRPRPRPAKNPRP, the “shrunken log2 fold change” value is reported as 0.312. With RRIRNRPPRLPRPRPRPCSLPRP the “shrunken log2 fold change” value was -0.262. With RRIRERPPRLPRPRPRPNIHPRP the “shrunken log2 fold change” value was -0.637. In the case of RRIRYRPPRLPRPRPRPCCVPRP, the “shrunken log2 fold change” value is reported as -0.422. For RRIRPRPPRLPRPRPRPMQVPRP, the “shrunken log2 fold change” value was -0.012. For RRIRIRPPRLPRPRPRPERIPRP, the “shrunken log2 fold change” value was 0.0552. For RRIRFRPPRLPRPRPRPIGSPRP, the “shrunken log2 fold change” value was -0.241. In the case of RRIRYRPPRLPRPRPRPLVVPRP, the “shrunken log2 fold change” value is reported as -0.72. With RRIRVRPPRLPRPRPRPLTTPRP the “shrunken log2 fold change” value was -0.219. With RRIRFRPPRLPRPRPRPKITPRP the “shrunken log2 fold change” value was -0.448. For RRIRQRPPRLPRPRPRPKKMPRP, the “shrunken log2 fold change” value was -0.108. RRIRTRPPRLPRPRPRPKQAPRP was tested, and the “shrunken log2 fold change” value was 0.0749. RRIRWRPPRLPRPRPRPDPDPRP was tested, and the “shrunken log2 fold change” value was 0.545. RRIRRRPPRLPRPRPRPQHDPRP was tested, and the “shrunken log2 fold change” value was 0.478. RRIRDRPPRLPRPRPRPPIWPRP was tested, and the “shrunken log2 fold change” value was 0.305. For RRIRTRPPRLPRPRPRPAWEPRP, the “shrunken log2 fold change” value was 0.174. With RRIRHRPPRLPRPRPRPTKIPRP the “shrunken log2 fold change” value was -0.316. For RRIRLRPPRLPRPRPRPTMMPRP, the “shrunken log2 fold change” value was -0.282. RRIRERPPRLPRPRPRPREMPRP was tested, and the “shrunken log2 fold change” value was 0.203. For RRIRQRPPRLPRPRPRPNFEPRP, the “shrunken log2 fold change” value was -0.00188. In the case of RRIRARPPRLPRPRPRPMPDPRP, the “shrunken log2 fold change” value is reported as 0.74. In the case of RRIRKRPPRLPRPRPRPSCVPRP, the “shrunken log2 fold change” value is reported as 0.311. With RRIRKRPPRLPRPRPRPVYIPRP the “shrunken log2 fold change” value was -0.564. RRIRIRPPRLPRPRPRPLWWPRP was tested, and the “shrunken log2 fold change” value was 0.266. In the case of RRIRRRPPRLPRPRPRPSMLPRP, the “shrunken log2 fold change” value is reported as -0.172. For RRIRDRPPRLPRPRPRPENHPRP, the “shrunken log2 fold change” value was -0.0926. In the case of RRIRYRPPRLPRPRPRPYYVPRP, the “shrunken log2 fold change” value is reported as 0.0372. With RRIRWRPPRLPRPRPRPNDDPRP the “shrunken log2 fold change” value was 0.0584. In the case of RRIRARPPRLPRPRPRPMVTPRP, the “shrunken log2 fold change” value is reported as 0.21. For RRIRDRPPRLPRPRPRPRTMPRP, the “shrunken log2 fold change” value was -0.0423. RRIRPRPPRLPRPRPRPWQFPRP was tested, and the “shrunken log2 fold change” value was 0.00677. With RRIRERPPRLPRPRPRPCWHPRP the “shrunken log2 fold change” value was -0.523. With RRIRCRPPRLPRPRPRPQPGPRP the “shrunken log2 fold change” value was 0.437. RRIRLRPPRLPRPRPRPIWWPRP was tested, and the “shrunken log2 fold change” value was 0.94. RRIRGRPPRLPRPRPRPKVRPRP was tested, and the “shrunken log2 fold change” value was 0.105. In the case of RRIRVRPPRLPRPRPRPRCTPRP, the “shrunken log2 fold change” value is reported as 0.0149. For RRIRDRPPRLPRPRPRPTHHPRP, the “shrunken log2 fold change” value was 0.224. In the case of RRIRPRPPRLPRPRPRPVKIPRP, the “shrunken log2 fold change” value is reported as 0.154. For RRIRERPPRLPRPRPRPMMFPRP, the “shrunken log2 fold change” value was -0.0555. For RRIRYRPPRLPRPRPRPLPLPRP, the “shrunken log2 fold change” value was -0.197. For RRIRMRPPRLPRPRPRPNGHPRP, the “shrunken log2 fold change” value was -0.00897. In the case of RRIRDRPPRLPRPRPRPSTGPRP, the “shrunken log2 fold change” value is reported as -0.313. For RRIRRRPPRLPRPRPRPPYHPRP, the “shrunken log2 fold change” value was 0.124. With RRIRERPPRLPRPRPRPAQDPRP the “shrunken log2 fold change” value was 0.00521. In the case of RRIRGRPPRLPRPRPRPINWPRP, the “shrunken log2 fold change” value is reported as 0.193. For RRIRVRPPRLPRPRPRPVHMPRP, the “shrunken log2 fold change” value was -0.0089. For RRIRERPPRLPRPRPRPDRYPRP, the “shrunken log2 fold change” value was -0.00433. With RRIRPRPPRLPRPRPRPDKNPRP the “shrunken log2 fold change” value was -0.308. With RRIRKRPPRLPRPRPRPTQVPRP the “shrunken log2 fold change” value was 0.312.
